Common to all, as to assay: Biacore (SPR)
For assay [1], the target named is T1, human Jag2-DSL-EGF1-4 (R2-E388) (UniProt Q9Y219 24-388).
T1 chain: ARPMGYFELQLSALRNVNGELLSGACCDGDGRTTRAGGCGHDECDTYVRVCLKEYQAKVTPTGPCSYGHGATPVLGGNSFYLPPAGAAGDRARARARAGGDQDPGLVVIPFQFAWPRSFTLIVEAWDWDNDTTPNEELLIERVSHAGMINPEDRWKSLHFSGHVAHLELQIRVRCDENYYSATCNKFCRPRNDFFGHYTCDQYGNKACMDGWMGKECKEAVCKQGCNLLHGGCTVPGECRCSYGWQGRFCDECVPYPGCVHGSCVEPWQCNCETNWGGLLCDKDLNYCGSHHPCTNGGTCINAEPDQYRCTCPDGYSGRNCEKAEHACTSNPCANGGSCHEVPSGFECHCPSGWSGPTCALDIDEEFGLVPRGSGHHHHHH

Assay [2] concerns the target human Jag1-DSL-EGF1-4 (UniProt P78504 34-377).
The target in assay [3] is T2, murine Jag2-DSL-EGF1-4 (M27-E388) (UniProt Q9QYE5 27-388).
T2 chain: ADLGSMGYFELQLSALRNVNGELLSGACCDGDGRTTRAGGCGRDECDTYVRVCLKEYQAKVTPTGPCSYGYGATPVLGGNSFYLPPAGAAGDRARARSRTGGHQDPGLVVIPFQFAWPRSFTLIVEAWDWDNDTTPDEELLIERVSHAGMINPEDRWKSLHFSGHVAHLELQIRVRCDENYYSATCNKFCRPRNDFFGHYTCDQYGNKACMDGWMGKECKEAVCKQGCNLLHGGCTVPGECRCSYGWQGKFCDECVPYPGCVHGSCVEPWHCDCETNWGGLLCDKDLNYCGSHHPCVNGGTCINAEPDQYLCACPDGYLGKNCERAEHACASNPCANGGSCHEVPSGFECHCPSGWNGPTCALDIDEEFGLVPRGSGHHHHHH

Numbering of substitutions follows the chain as printed.

B1: D-1 (antibody, V domains shown)
VH: EVQLVESGGGLVQPGGSLRLSCAASGFTFTSNYMSWVRQAPGKGLEWVSTIWYQSGTTDYADSVKGRFTISADTSKNTAYLQMNSLRAEDTAVYYCARDSPWPSKGFGMDVWGQGTLVTVSS
VL: DIQMTQSPSSLSASVGDRVTITCRASQSISSYLAWYQQKPGKAPKLLIYGASSRASGVPSRFSGSGSGTDFTLTISSLQPEDFATYYCQQYLSSPITFGQGTKVEIK
In the case of B1, the values for the Kd in assay [1], in assay [2] and in assay [3] were 4.6 nM, 0.52 nM and 14 nM, respectively.

B2: D (antibody, V domains shown)
VH: B1 VH with D99S, P103S, S104G, K105E
VL: B1 VL with L92Y, I96L
B2 displayed a Kd in assay [2] of 13 nM.

B3: D-2 (antibody, V domains shown)
VH: B1 VH with T28S, F29V, T30K, S31P, N32M, S35T, D99S, P103S, S104G, K105E
VL: B1 VL with L92S, I96L
For B3, in assay [2], the Kd was 1.1 nM.

B4: C-1 (antibody, V domains shown)
VH: EVQLVESGGGLVQPGGSLRLSCAASGFTFTNSDIHWVRQAPGKGLEWVGGITPADGYTDYADSVKGRFTISADTSKNTAYLQMNSLRAEDTAVYYCARSYWSSSPGSAFDYWGQGTLVTVSS
VL: DIQMTQSPSSLSASVGDRVTITCRASQDVSTAVAWYQQKPGKAPKLLIYSASFLYSGVPSRFSGSGSGTDFTLTISSLQPEDFATYYCQQSYISPSTFGQGTKVEIK
Consider B4, for which the values for the Kd in assay [1], in assay [2] and in assay [3] were 0.12 nM, 0.31 nM and 0.73 nM, respectively.

B5: B-3 (antibody, V domains shown)
VH: EVQLVESGGGLVQPGGSLRLSCAASGFTFTSYDIHWVRQAPGKGLEWVGGISPADGDTDYANSVKGRFTISADTSKNTAYLQMNSLRAEDTAVYYCARNDYDVRFVGSGMDYWGQGTLVTVSS
VL: B4 VL with Y92F, I93T, S94A, S96P
B5: in assay [3], binding was put at a Kd of 0.3 nM.

B6: A-2 (antibody, V domains shown)
VH: EVQLVESGGGLVQPGGSLRLSCAASGFTFSNYGIHWVRQAPGKGLEWVGWITGNGGYSDYADSVKGRFTISADTSKNTAYLQMNSLRAEDTAVYYCARAGSWFAYWGQGTLVTVSS
VL: B4 VL with I93T, S94T, S96P
B6 registered a Kd in assay [2] of 0.3 nM.

B7: A (antibody, V domains shown)
VH: B6 VH with G53P, N54D, S58T
VL: B4 VL with I93T, S94T, S96P
B7: the affinity in assay [2], expressed as Kd, was 94 nM.

B8: B-2 (antibody, V domains shown)
VH: B5 VH with F105S
VL: B4 VL with Y92W, I93T, S94A, S96P
B8 came in with a Kd in assay [3] of 0.0025 nM.

B9: C (antibody, V domains shown)
VH: B4 VH with S102N, S103N, A108G
VL: B4 VL with I93T, S94T, S96P
B9: the Kd in assay [2] is 2.3 nM.

B10: B (antibody, V domains shown)
VH: B5 VH with F105S
VL: B4 VL with I93T, S94T, S96P
For the molecule B10, the Kd in assay [1] and in assay [3] was 1 nM throughout.

B11: B-1 (antibody, V domains shown)
VH: B5 VH with F105T
VL: B4 VL with I93T, P95A, S96P
The molecule B11 came in with a Kd in assay [3] of 1.1 nM.

The record behind these values is US20150232568A1 (published 2015).
